Values quoted from earlier work as cited in article PMC11346406.

Target: TDP-43 PLD (Homo sapiens) (UniProt Q13148)
Test: NMR

TDP-43 PLD (Homo sapiens), sequence (Q13148 274-414): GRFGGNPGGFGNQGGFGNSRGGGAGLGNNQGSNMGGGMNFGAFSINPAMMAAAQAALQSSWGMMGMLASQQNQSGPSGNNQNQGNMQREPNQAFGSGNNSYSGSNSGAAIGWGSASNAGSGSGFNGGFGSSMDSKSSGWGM
TDP-43 RRM1-RRM2, sequence (Q13148 102-269): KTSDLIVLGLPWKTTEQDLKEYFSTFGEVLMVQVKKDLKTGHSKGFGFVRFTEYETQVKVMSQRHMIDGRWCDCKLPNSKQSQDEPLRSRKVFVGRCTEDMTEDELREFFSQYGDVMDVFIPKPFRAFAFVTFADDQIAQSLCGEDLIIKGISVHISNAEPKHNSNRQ

In the case of TDP-43 RRM1-RRM2 (from UniProt Q13148), the Kd is given as 5 µM.
